Results from patent US20250263490A1 (VIB VZW, published 2025).

Assays:
[1] = biological target: T1, recombinant human domain 1-3His6 of the cation-independent mannose-6-phosphate receptor (human, UniProt P11717 41-467); assay: BLI exp 2, dissoc pH not printed (between 6 and 5, presumably 5.5)
T1 construct: Biotinylated (NHS-PEG4-biotin) for BLI; Glycosylated; also called hDom1-3His6; hCI-M6PRD1-D3
Protocol: For each of the 11 anti-CI-M6PR VHHs, a biolayer interferometry (BLI) experiment was performed in which the hDom₁₋₃His₆ was biotinylated and coupled to streptavidin biosensor tips. Afterwards, the tips were incubated with serially diluted VHHs during the association phase and dissociation was performed at pH 7.4. Similarly, dissociation was performed at pH 7.0, pH 6.0 and pH 5.0 as well after regeneration of the biosensor tips. […] The anti-CI-M6PR antibody (clone 2G11) and GBP were used as positive and negative controls, respectively.
Analysis of the binding kinetics was performed using an Octet Red96 (FortéBio) device with Streptavidin SA Biosensor tips (VWR, 733-2145). To this end, 1 mL of hCI-M6PR_D1-D3 (0.5 mg/mL in 50 mM MES, 150 mM NaCl, pH 6.5) was incubated at room temperature for 30 minutes with a two-fold molar excesses of EZ-Link™ NHS-PEG₄-Biotin (Thermo Fischer, A39259) and NaHCO₃ (100 mM, pH 8.3). Biotinylated hCIMPR_D1-D3 was purified using a Zeba spin desalting column (Thermo Fischer, 89890) and protein concentration was calculated by measuring the absorbance at 280 nm (extinction coefficient 50320 M¹ cm⁻¹). Two-fold biotin-labelled antigen was loaded on the tips (2.5 μg/mL) and subsequently dipped into a particular anti-CI-M6PR VHH-containing solution (ranging from 0-100 nM). […]

[2] = biological target: T1, recombinant human domain 1-3His6 of the …; assay: BLI exp 2, dissoc pH not printed (between 7 and 6, presumably 6.5)
[3] = biological target: T1, recombinant human domain 1-3His6 of the …; assay: BLI exp 2, dissoc pH not printed (between 7 and 6, presumably 6.5); pH not given; row between pH 7 and pH 6 (6.5 in the VHH1, VHH7 and VHH8 blocks)

B1: anti-CI-M6PR VHH5 (VHH)
VHH: QVQLQESGGGLVQAGGSLKLSCAAAGRTFSRLAMGWFRQAPGKEREFVAAISENGDSIHYSDSVKGRFAVSRDNAKNTVYLQMNSLKPEDTAIYYCAADRAAYYCSGSGCYPSRAPAAASYDYWGQGTQVTVSS
notes: His6-tagged; made in Pichia pastoris, later also in E. coli WK6
koff [1]: 0.00062 s⁻¹ | kon [1]: 2.1e+06 M⁻¹ s⁻¹ | koff [2]: 0.00017 s⁻¹ | kon [3]: 1.3e+06 M⁻¹ s⁻¹
